According to paper PMC8484680:

Columns and labels:
[1] = target: PsFucS1, fucoidan active sulfatase (subfamily S1_13) from Pseudoalteromonas sp. MB47 (Pseudoalteromonas sp. MB47); test: SEC; analytical SEC, HiLoad 16/600 Superdex 200 pg, room temperature, 200 µl of His-tagged PsFucS1 at 6 mg/ml, 50 mM Tris-HCl pH 8.0, 100 mM NaCl; calibrated with standards of 13.7-440 kDa
[2] = target: PsFucS1, fucoidan active sulfatase (subfamily S1_13) from Pseudoalteromonas sp. MB47 (Pseudoalteromonas sp. MB47); test: crystal structure; X-ray, 2.50 Å, space group P212121, six molecules in the asymmetric unit; crystals grown at 20 °C in 0.1 M sodium acetate pH 4.6, 0.1 M NaCl, 20% PEG 3350; interfaces analysed with PISA

stoichiometry N [1]: 6 | stoichiometry N [2]: 6
Substance: PsFucS1, fucoidan active sulfatase (subfamily S1_13) from Pseudoalteromonas sp. MB47 (enzyme)
